Data taken from the supplement of paper PMC12764529.
± gives the half width of the 95% confidence interval.

Assays:
[1] = folding stability dG unfold from trypsin proteolysis; higher = more stable
How it was run: (§1)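 Designed mini-proteins with no cysteine and under 80 residues were kept only if AlphaFold2 dimer inter-PAE was above 15. In a PA-tagged cDNA display construct, they were digested with trypsin and chymotrypsin and then sequenced. K50 was inferred by Bayesian fitting of counts, and unfolding free energy was derived per protease or combined against a sequence-predicted unfolded-state K50 and a shared folded-state K50.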

[2] = folding stability dG unfold from chymotrypsin proteolysis; higher = more stable
How it was run: as §1

[3] = folding stability dG unfold (combined trypsin and chymotrypsin); higher = more stable
How it was run: as §1

| Sequence | folding stability dG unfold [1] | folding stability dG unfold [2] | folding stability dG unfold [3] |
| --- | --- | --- | --- |
| SKETETVEMEITITVNGKKVKIKATFTRNKDGSITMTITYEDGKKIEITFTNGKIVIVDKKTKKIIAEIPSA [r9_970_TrROS_Hall] | 2.54 ± 0.19 kcal/mol | 4.41 ± 0.15 kcal/mol | 4.14 ± 0.25 kcal/mol |
| SAGGSAMPPNMKKVPISIHIPAENYKRDPDGKWKFTADELARHIQRGFRQRFGMPIKKIDVHVHPPSAGGSA [r15_415_TrROS] | -0.000463 ± 0.31 kcal/mol | 0.00448 ± 0.31 kcal/mol | -0.0271 ± 0.21 kcal/mol |
| SAGGGSLEKIREAGKKGYLVRIELETGERRVIPIEDLIRDPRFGPDVPLAELRVRRIELLPPDDGLPLSAGG [r13_587_TrMRF] | 1.27 ± 0.036 kcal/mol | 0.889 ± 0.069 kcal/mol | 1.13 ± 0.062 kcal/mol |
| SAGGSAGGSAGVITVTKDPKTGKYTVTIETPSGPATTVEVSSEEEAKELAKKLGYDIDALSAGGSAGGSAGG [r11_1049_JUSTAS] | 3.89 ± 0.14 kcal/mol | 3.78 ± 0.087 kcal/mol | 3.82 ± 0.098 kcal/mol |
| SAGGRVDVRVERVGEGAVITLLADVEDPEPLVELLEASGLPVELARIEPVRDPVTGRLLVRAVFRVPSAGGS [r16_699_TrMRF] | 1.12 ± 0.069 kcal/mol | 1.14 ± 0.082 kcal/mol | 1.13 ± 0.095 kcal/mol |
| SMITSTTTTDPNSNTTTTTYTYPDTTYTVTRTLNPDNTVTVTVTATTPPGPTTPLSTVNLSPTDTLTLPVSA [r9_1172_JUSTAS] | 1.34 ± 0.031 kcal/mol | 1.26 ± 0.068 kcal/mol | 1.36 ± 0.054 kcal/mol |
| SAGGSAMVTVTRYPDGTYVVEATGRGDSRTFTLDLPLEEIKEVLEKEGIKIDKIEVKPAPVDPAKVSAGGSA [r15_576_JUSTAS] | 1.268 ± 0.012 kcal/mol | 1.5 ± 0.034 kcal/mol | 1.4 ± 0.05 kcal/mol |
| SAAFAIKAIATPPNGKKYEILALDNGEGVLVFIENGSKEIPLEELIKLIENNPELKIEKIEIRPLSEFLSAG [r14_336_TrMRF] | 0.667 ± 0.11 kcal/mol | 0.486 ± 0.19 kcal/mol | 0.611 ± 0.17 kcal/mol |
| SAGGPYMEIQFPMPEDQVRPALEKAADEWGMEVKEINYHPNNGMVTITVNDNMPPNRIRKAIEKVLKSAGGS [r8_338_TrROS] | -0.784 ± 0.4 kcal/mol | 0.0859 ± 0.09 kcal/mol | -0.181 ± 0.15 kcal/mol |
| SAGGSMVIRVETPEEAEEAARELAERLRELFPEVKELEIKVKVEVVDEETGEEKEYEFTIKLKLPPSAGGSA [r2_393_TrROS_Hall] | 2.54 ± 0.12 kcal/mol | 2.62 ± 0.098 kcal/mol | 2.62 ± 0.24 kcal/mol |
| SAGGSAGGSAGMKVLVLRIRIERPEEELSEEDRAKLPPVRIEIELVEVELPPEVEVREEESAGGSAGGSAGG [r17_310_TrROS_Hall] | 2.44 ± 0.14 kcal/mol | 3.86 ± 0.11 kcal/mol | 3.43 ± 0.2 kcal/mol |
| SAGGSAGGSAGGEKPKYIIIPATLTVPVLTKEGEGEKVEYKEITLLLIINPDTNEITVSSAGGSAGGSAGGS [r10_533_TrMRF] | 2.7 ± 0.15 kcal/mol | 3.07 ± 0.07 kcal/mol | 2.86 ± 0.22 kcal/mol |
| SMIVRVEGDKTTITLTLTTTTTLTDPTNPSLTTTVSKTVPRTLTLDPNDPAALAALIAALPPGAVPTIVGSA [r9_476_JUSTAS] | 0.728 ± 0.04 kcal/mol | 1.75 ± 0.091 kcal/mol | 1.43 ± 0.095 kcal/mol |
| SAGGSATIEEKIRNIAKEQGFPVTDVQVRRTPGKVYIMFQAKDPRMYYIEIDNDKIKIMPAEDIKPSAGGSA [r15_901_TrROS] | 1.14 ± 0.027 kcal/mol | 1.57 ± 0.064 kcal/mol | 1.36 ± 0.06 kcal/mol |
| SAGGSAGGKKTVEIEMTVDELLAALKSLSEEELKNVKIIGKDGKEFTLEDLEKNPGKIYKIEVKSAGGSAGG [r6_428_TrROS_Hall] | 0.694 ± 0.07 kcal/mol | 2.23 ± 0.074 kcal/mol | 1.82 ± 0.16 kcal/mol |
| SAGGFTIEELAEKFPNVEVYVQRFGNKYLIQFEFEDKDRKYQVVIKYDGPGKIDIKVMPPNQDAEEALSAGG [r13_859_TrROS] | 2.1 ± 0.069 kcal/mol | 3.094 ± 0.019 kcal/mol | 2.8 ± 0.072 kcal/mol |

| Sequence | folding stability dG unfold [1] | folding stability dG unfold [2] | folding stability dG unfold [3] |
| --- | --- | --- | --- |
| SAGSEEEKKAIAEELKEKILKERPELQKKEYTVEVEITPLPDDSIRITVTVTLPSGETETREYVYPNKSAGG [r19_194_JUSTAS] | 2.71 ± 0.26 kcal/mol | 2.95 ± 0.21 kcal/mol | 3 ± 0.24 kcal/mol |
| SATIEIPIKVNDRKFRISIERMPDGWIKIQIRDPNMPKDAVKDALREILGPGWKIDTDPETNTIYIPFKSAG [r14_370_TrROS] | 2.41 ± 0.061 kcal/mol | 2.77 ± 0.027 kcal/mol | 2.67 ± 0.059 kcal/mol |
| SAGGSAGGSAGGKPVIYRIEVRLPDSPEREIFEIEVPPDRPEVAEELAKLLGPNVKMEPLSAGGSAGGSAGG [r11_250_TrMRF] | -0.166 ± 0.1 kcal/mol | -0.577 ± 0.49 kcal/mol | -0.387 ± 0.38 kcal/mol |
| SAGGSAGGSAGYISIMIFFVLPDGYAIMVKYTFELPPNGNPKIENIEIHVMKLPPGEPIFSAGGSAGGSAGG [r11_517_TrROS] | 4.22 ± 0.3 kcal/mol | 5.35 ± 0.17 kcal/mol | 5.13 ± 0.3 kcal/mol |
| SAGGSAGGGKMEYDPKDGTMRWRDPANGIEHESRIEIPPIVIPADDLPKLREQFPPDMPVVLAGSAGGSAGG [r6_104_TrROS] | 0.238 ± 0.034 kcal/mol | 0.94 ± 0.062 kcal/mol | 0.722 ± 0.043 kcal/mol |
| SAGGSAATTVAVNGKEITIVSVDPATGKVTIAVPENVPESVIQAAKDLLEAQGLPVEVKRVPPEKLSAGGSA [r15_570_JUSTAS] | 1.42 ± 0.044 kcal/mol | 1.3 ± 0.013 kcal/mol | 1.33 ± 0.05 kcal/mol |
| SAGGMVTTESTKPYLLPNGTKATLTTTTTLYPDGTVVSPTTFTLTFPDGSSTTTTTTTVTTLASGALSAGGS [r16_505_JUSTAS] | 0.836 ± 0.048 kcal/mol | 0.563 ± 0.089 kcal/mol | 0.727 ± 0.065 kcal/mol |
| SAGGSAGGSAGKIVIVVDEDGNYTLKVNGKTYVFKTPEEAKAAAEELKKAGIEIEIVEVPSAGGSAGGSAGG [r17_35_TrROS_Hall] | 3.6 ± 0.21 kcal/mol | 4.96 ± 0.16 kcal/mol | 4.85 ± 0.17 kcal/mol |
| SMTVSNPRGKTVTVTVTVTVDPNKKSVTVPVTIRTAGEELTFTFTVPKGVNKPVTFSLTVPLPPGSSVISSA [r9_973_JUSTAS] | 3 ± 0.093 kcal/mol | 4.02 ± 0.059 kcal/mol | 3.63 ± 0.089 kcal/mol |
| SAGGSAGGEDKYLVVEFTVPEGKAEEFIAEVKKKIPPNWKIERVEIVEKTEDGLYRVRVVLKPGSAGGSAGG [r6_340_TrMRF] | 4.5 ± 0.14 kcal/mol | 4.88 ± 0.049 kcal/mol | 4.87 ± 0.086 kcal/mol |
| SAGGSAGGANDPEMPKPKRVEITIPPDEEIRNPNGKEMPVEQAREYAEYLADRYGIDVEITISPSAGGSAGG [r6_162_TrROS] | -0.406 ± 0.29 kcal/mol | 0.215 ± 0.43 kcal/mol | -0.202 ± 0.41 kcal/mol |
| SAGPEVVVFKGIEVEVTEVPPELLENLPPDVIAIPFGDRVLLIRVREYDVARFPPIPPLGANPETGELSSAG [r14_126_TrMRF] | 2.17 ± 0.12 kcal/mol | 2.61 ± 0.11 kcal/mol | 2.44 ± 0.3 kcal/mol |
| SAGGSAGGMVIEGRIKIVSPDGGEKEIPVVLFIPESFPDANLEELAEAIAKEILPPGYKADFEGSAGGSAGG [r6_821_TrMRF] | 0.601 ± 0.065 kcal/mol | 1 ± 0.023 kcal/mol | 0.879 ± 0.17 kcal/mol |
| SAGMEEEEVVLKIRVKDPETGEEKTFEVKLKDIEKVEVDEDGNIRIYLKEDGKEITIPADKITEVELLSAGG [r19_416_TrROS_Hall] | 3.15 ± 0.11 kcal/mol | 3.86 ± 0.059 kcal/mol | 3.71 ± 0.089 kcal/mol |
| SAGGEKEYVEVTLEIEIEIELEPGESAEEIARKLAEELGAEITEVRVERLPDGTVKITVTVRVKLPPSAGGS [r8_292_TrROS_Hall] | 3.3 ± 0.29 kcal/mol | 2.58 ± 0.2 kcal/mol | 2.98 ± 0.35 kcal/mol |
